Assays:
yeast hexokinase (HK) = target: T1, yeast hexokinase (HK) (Saccharomyces cerevisiae, UniProt P04807); assay: coupled G6PDH assay, NADH formation; type: biochemical; conditions: inhibition by product; 0.15-20 mM ADP, 30 °C, pH 7.5
T1 construct: gene HXK2; commercial preparation containing predominantly the PII isoform (HXK2); may contain some PI
T1 sequence (P04807 2-486): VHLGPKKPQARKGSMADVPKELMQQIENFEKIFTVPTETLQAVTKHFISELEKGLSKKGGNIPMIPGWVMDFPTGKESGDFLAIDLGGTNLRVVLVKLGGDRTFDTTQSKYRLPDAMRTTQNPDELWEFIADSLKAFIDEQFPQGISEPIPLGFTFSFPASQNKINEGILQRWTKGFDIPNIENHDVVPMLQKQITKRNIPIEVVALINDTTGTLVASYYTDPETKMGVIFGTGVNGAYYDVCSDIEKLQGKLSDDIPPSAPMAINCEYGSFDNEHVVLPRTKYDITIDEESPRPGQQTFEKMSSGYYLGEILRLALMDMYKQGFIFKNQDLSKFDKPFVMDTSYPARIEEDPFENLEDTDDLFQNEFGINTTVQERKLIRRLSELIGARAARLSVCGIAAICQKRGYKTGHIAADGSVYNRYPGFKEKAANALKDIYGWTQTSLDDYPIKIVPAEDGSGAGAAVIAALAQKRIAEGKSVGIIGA

[1] = substrate: Nc1ncnc2c1ncn2[C@@H]1O[C@H](COP(=O)(O)OP(=O)(O)OP(=O)(O)O)[C@@H](O)[C@H]1O; assay: coupled G6PDH assay, NADH formation; type: biochemical, Saccharomyces cerevisiae; conditions: 200 mM glucose, 10 mM MgCl2, 50 mM sodium phosphate pH 7.5, 30 °C
From the text: coupled G6PDH assay, NADH formation on yeast hexokinase (HK)

[2] = substrate: Nc1ncnc2c1ncn2[C@@H]1O[C@H](COP(=O)(O)OP(=O)(O)O)[C@@H](O)[C@H]1O; assay: luciferase ATP determination assay; type: biochemical, Pseudomonas aeruginosa; conditions: 0-20 mM ADP, 10 mM sodium polyphosphate (Graham's salt), 10 mM MgCl2, sodium phosphate pH 7.5, 30 °C

For `Nc1ncnc2c1ncn2[C@@H]1O[C@H](COP(=O)(O)OP(=O)(O)O)[C@@H](O)[C@H]1O` [ADP], which relative activity (yeast hexokinase (HK)) is on record?
The relative activity was “ADP lowered the reaction even at small concentrations”.

B1: yeast hexokinase (HK) (Saccharomyces cerevisiae S288C) (protein)
chain: T1 sequence (P04807 2-486)
notes: commercial preparation containing predominantly the PII isoform (HXK2); may contain some PI
Which results are given for B1?
Km [1]: 1107 ± 74 µM; Vmax [1]: 33 µM/min

B2: PPK2 (Pseudomonas aeruginosa PAO1) (protein)
chain: MDSYGDTSGRIGRDWLDRHDEELEQELLDDELNLDELFGPEQEDAPGELSRRRYFRELFRLQRELVKLQNWVVHTGHKVVILFEGRDAAGKGGVIKRITQRLNPRVCRVAALPAPNDREQTQWYFQRYVSHLPAGGEIVLFDRSWYNRAGVERVMGFCNDEQYEEFFRSVPEFEKMLARSGIQLLKYWFSISDAEQHLRFLSRIHDPLKQWKLSPMDLESRRRWEAYTKAKETMLERTHIPEAPWWVVQADDKKRARLNCIHHLLQQMPYREVPQPPVHLPERLRHADYVRHPTPGEIIVPEVY
notes: about 39 kDa; E. coli BL21 (DE3)
Which Km [2] does the source give for B2 here?
The Km was 23 ± 5.9 µM.

Source: article PMC8206812 (Frontiers in Bioengineering and Biotechnology, 2021)
